Publication PMC12052454
Primed or numbered codes have the meaning given here. The star is where a group is joined. 5FAM = O=C1OC2(c3ccc(O)cc3Oc3cc(O)ccc32)c2ccc(C(=O)*)cc21; Dabcyl′ = CN(C)c1ccc(/N=N/c2ccc(C(=O)*)cc2)cc1

Biological target: ADAM9-P750L (rs144750648) (human) (UniProt Q13443)
Set-up: unit not given beside the values

Chain of UniProt Q13443 (Q13443 29-819 P750L): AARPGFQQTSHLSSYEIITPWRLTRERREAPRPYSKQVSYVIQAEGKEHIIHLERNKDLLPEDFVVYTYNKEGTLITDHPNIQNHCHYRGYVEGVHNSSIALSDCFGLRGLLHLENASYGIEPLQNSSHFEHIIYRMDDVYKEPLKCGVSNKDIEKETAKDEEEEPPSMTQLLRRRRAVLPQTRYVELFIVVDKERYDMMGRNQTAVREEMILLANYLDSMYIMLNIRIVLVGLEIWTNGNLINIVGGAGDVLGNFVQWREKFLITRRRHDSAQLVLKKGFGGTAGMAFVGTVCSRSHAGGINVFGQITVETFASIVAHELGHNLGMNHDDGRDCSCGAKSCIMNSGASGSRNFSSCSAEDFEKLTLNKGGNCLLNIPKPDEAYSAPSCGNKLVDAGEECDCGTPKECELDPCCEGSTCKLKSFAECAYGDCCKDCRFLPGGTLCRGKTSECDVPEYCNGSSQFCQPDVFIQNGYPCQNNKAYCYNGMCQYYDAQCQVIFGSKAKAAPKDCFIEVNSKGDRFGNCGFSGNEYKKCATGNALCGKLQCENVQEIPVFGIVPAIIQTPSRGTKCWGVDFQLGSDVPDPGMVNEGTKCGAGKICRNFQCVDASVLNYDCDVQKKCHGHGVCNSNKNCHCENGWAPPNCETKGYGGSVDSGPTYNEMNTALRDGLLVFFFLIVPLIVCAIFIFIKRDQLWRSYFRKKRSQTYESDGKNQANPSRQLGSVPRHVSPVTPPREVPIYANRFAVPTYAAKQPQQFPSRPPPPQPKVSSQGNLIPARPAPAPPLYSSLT

Km of cleavage of the fluorogenic substrate PEPDAB010 (Lineweaver-Burk plot, lysates of transfected HEK293 cells), reduction compared to ADAM9 WT (% reduction of Km compared to ADAM9 WT): 41.9
B1: ADAM9 fluorogenic substrate PEPDAB010 (Dabcyl-…[5-FAM]-NH2) (peptide)
peptide: {Dabcyl′}-SPLAQAVRSSK(5FAM)-NH2
SMILES: CC(C)C[C@H](NC(=O)[C@@H]1CCCN1C(=O)[C@H](CO)NC(=O)c1ccc(/N=N/c2ccc(N(C)C)cc2)cc1)C(=O)N[C@@H](C)C(=O)N[C@@H](CCC(N)=O)C(=O)N[C@@H](C)C(=O)N[C@H](C(=O)N[C@@H](CCCNC(=N)N)C(=O)N[C@@H](CO)C(=O)N[C@@H](CO)C(=O)N[C@@H](CCCCNC(=O)c1ccc2c(c1)C(=O)OC21c2ccc(O)cc2Oc2cc(O)ccc21)C(N)=O)C(C)C
